Laboratory results as given in paper PMC3817168.

Biological target: ChrB-His6 (Ochrobactrum tritici 5bvl1)
Assay: cross-linking; 8 µg purified protein, 0.1% glutaraldehyde, 20 mM NaCl, 10 mM KCl, 2 mM DTT, 20 mM Hepes pH 7.5, 30°C, 2 to 60 min; read by 10% SDS-PAGE or anti-His immunoblot; also with chr promoter DNA and/or Cr(VI), without effect

ChrB-His6 (natural protein)
stoichiometry N: 2
